Measured values as given in US20220136002A1 (JACKSON LABORATORY, published 2022).

Biological target: T1, mouse FLT3 receptor (mouse, UniProt Q00342 28-1000)
T1 construct: whole, on cells; Endogenous receptor of the NSG host mouse, knocked out in the NSG Flt3null-Tg(Hu-FLT3L) line; also called CD135
T1 sequence (looked up): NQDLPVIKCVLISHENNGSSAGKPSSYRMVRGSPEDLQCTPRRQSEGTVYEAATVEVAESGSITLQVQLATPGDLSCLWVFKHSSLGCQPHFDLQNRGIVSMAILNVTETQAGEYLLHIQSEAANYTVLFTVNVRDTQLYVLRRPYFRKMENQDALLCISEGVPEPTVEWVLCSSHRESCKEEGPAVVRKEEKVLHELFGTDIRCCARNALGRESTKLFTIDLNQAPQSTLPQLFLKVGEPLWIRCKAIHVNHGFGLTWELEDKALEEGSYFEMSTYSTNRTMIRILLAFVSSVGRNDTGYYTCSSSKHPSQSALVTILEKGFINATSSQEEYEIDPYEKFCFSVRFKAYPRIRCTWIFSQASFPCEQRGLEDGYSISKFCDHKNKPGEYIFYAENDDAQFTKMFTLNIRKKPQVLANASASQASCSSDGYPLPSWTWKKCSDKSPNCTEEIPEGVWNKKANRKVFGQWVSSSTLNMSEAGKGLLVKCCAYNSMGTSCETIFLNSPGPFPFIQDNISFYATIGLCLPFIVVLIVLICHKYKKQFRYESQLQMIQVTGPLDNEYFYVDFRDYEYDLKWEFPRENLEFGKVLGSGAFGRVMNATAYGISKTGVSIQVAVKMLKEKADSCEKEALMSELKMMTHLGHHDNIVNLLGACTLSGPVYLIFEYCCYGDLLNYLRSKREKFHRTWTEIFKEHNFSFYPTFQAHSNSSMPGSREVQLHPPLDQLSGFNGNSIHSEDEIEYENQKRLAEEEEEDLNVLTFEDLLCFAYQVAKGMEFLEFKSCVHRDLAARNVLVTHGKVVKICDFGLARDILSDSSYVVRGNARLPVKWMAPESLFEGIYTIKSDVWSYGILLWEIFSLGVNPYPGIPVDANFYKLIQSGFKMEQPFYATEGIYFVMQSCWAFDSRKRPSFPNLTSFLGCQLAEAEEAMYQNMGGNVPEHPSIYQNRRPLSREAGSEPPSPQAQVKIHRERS
Test: no direct binding assay; inferred from in vivo mouse genetics (human FLT3L transgenic NSG mice with and without knock-out of mouse Flt3)

binding result: binds
B1: human FLT3 ligand (FLT3L) (ligand, UniProt P49771 27-184, looked up)
chain: TQDCSFQHSPISSDFAVKIRELSDYLLQDYPVTVASNLQDEELCGGLWRLVLAQRWMERLKTVAGSKMQGLLERVNTEIHFVTKCAFQPPPSCLRFVQTNISRLLQETSEQLVALKPWITRQNFSRCLELQCQPDSSTLPPPWSPRPLEATAPTAPQP
notes: Expressed in vivo from a 13.8 kb genomic BAC fragment and circulating in mouse serum; also called Hu-FLT3L
